Laboratory results as given in patent US20180298404A1.

How the values were obtained:
[1] = biological target: Mamu-E*02:04, single transfectant (rhesus macaque); assay: cell-based or functional assay
[2] = biological target: Mamu-E*02:20, single transfectant (rhesus macaque); assay: cell-based or functional assay

Row | Substance | peptide dose pulsed on the transfectant that triggers CD8+ T cells (ICS) [1] [nM] | peptide dose pulsed on the transfectant that triggers CD8+ T cells (ICS) [2] [nM]
1 | SIVgag276-284 optimal 9mer peptide | < 1 | < 1
2 | SIVgag482-490 optimal 9mer peptide | < 1 | < 1
3 | SIVgag259-267 optimal 9mer peptide | < 1 | < 1
4 | SIVgag476-484 optimal 9mer peptide | < 1 | < 1
